# Measurements from patent US20130209454A1.
# What was measured:
# Experiment in all cases: cell-based or functional assay
# [1] = target: Env of HIV-1 strain 0815.v3.c3 (HIV-1)
# [2] = target: Env of HIV-1 strain 191821_E6_1 (HIV-1)
# [3] = target: Env of HIV-1 strain 231966.c02 (HIV-1)
# [4] = target: Env of HIV-1 strain 620345.c01 (HIV-1)
# [5] = target: Env of HIV-1 strain 62357_14_D3_4589 (HIV-1)
# [6] = target: Env of HIV-1 strain 6240_08_TA5_4622 (HIV-1)
# [7] = target: Env of HIV-1 strain 6244_13_B5_4576 (HIV-1)
# [8] = target: Env of HIV-1 strain 9004SS_A3_4 (HIV-1)
# [9] = target: Env of HIV-1 strain A07412M1.vrc12 (HIV-1)
# [10] = target: Env of HIV-1 strain CAAN5342.A2 (HIV-1)
# [11] = target: Env of HIV-1 strain CAP210.2.00.E8 (HIV-1)
# [12] = target: Env of HIV-1 strain CNE53 (HIV-1)
# [13] = target: Env of HIV-1 strain Ce1172_H1 (HIV-1)
# [14] = target: Env of HIV-1 strain Ce2060_G9 (HIV-1)
# [15] = target: Env of HIV-1 strain HIV-001428-2.42 (HIV-1)
# [16] = target: Env of HIV-1 strain HIV-16055-2.3 (HIV-1)
# [17] = target: Env of HIV-1 strain PVO.4 (HIV-1)
# [18] = target: Env of HIV-1 strain T278-50 (HIV-1)
# [19] = target: Env of HIV-1 strain X2088_c9 (HIV-1)
# [20] = target: Env of HIV-1 strain X2131_C1_B5 (HIV-1)
# [21] = target: HIV-1 Env of strain 3301.v1.c24 (HIV-1)
# [22] = target: HIV-1 Env of strain 6535.3 (HIV-1)
# [23] = target: HIV-1 Env of strain 6545.v4.c1 (HIV-1)
# [24] = target: HIV-1 Env of strain 9004SS_A3_4 (HIV-1)
# [25] = target: HIV-1 Env of strain A07412M1.vrc12 (HIV-1)
# [26] = target: HIV-1 Env of strain BJOX009000.02.4 (HIV-1)
# [27] = target: HIV-1 Env of strain BJOX028000.10.3 (HIV-1)
# [28] = target: HIV-1 Env of strain CNE30 (HIV-1)
# [29] = target: HIV-1 Env of strain Ce1086_B2 (HIV-1)
# [30] = target: HIV-1 Env of strain Ce2010_F5 (HIV-1)
# [31] = target: HIV-1 Env of strain HIV-0013095-2.11 (HIV-1)
# [32] = target: HIV-1 Env of strain MS208.A1 (HIV-1)
# [33] = target: HIV-1 Env of strain P1981_C5_3 (HIV-1)
# [34] = target: HIV-1 Env of strain R1166.c01 (HIV-1)
# [35] = target: HIV-1 Env of strain T257-31 (HIV-1)
# [36] = target: HIV-1 Env of strain T278-50 (HIV-1)
# [37] = target: HIV-1 Env of strain TRJO4551.58 (HIV-1)
# [38] = target: HIV-1 Env of strain TRO.11 (HIV-1)
# [39] = target: HIV-1 Env of strain X2088_c9 (HIV-1)
# [40] = target: HIV-1 Env of strain ZM249M.PL1 (HIV-1)
# [41] = target: HIV-1 Env of strain ZM53M.PB12 (HIV-1)
binder,measurement,setting,value
"NIH45-46^G54W (antibody, V domains shown) VH: QVRLSQSGGQMKKPGESMRLSCRASGYEFLNCPINWIRLAPGRRPEWMGWLKPRWGAVNYARKFQGRVTMTRDVYSDTAFLELRSLTSDDTAVYFCTRGKYCTARDYYNWDFEHWGRGAPVTVSS VL: EIVLTQSPATLSLSPGETAIISCRTSQSGSLAWYQQRPGQAPRLVIYSGSTRAAGIPDRFSGSRWGADYNLSISNLESGDFGVYYCQQYEFFGQGTKVQVDI",IC80,[1],0.003 mg/L
same,IC80,[2],0.099 mg/L
same,IC80,[3],0.11 mg/L
same,IC80,[4],> 50 mg/L
same,IC80,[5],0.07 mg/L
same,IC80,[6],0.603 mg/L
same,IC80,[7],0.095 mg/L
same,IC80,[8],0.28 mg/L
same,IC80,[9],0.042 mg/L
same,IC80,[10],0.21 mg/L
same,IC80,[11],> 50 mg/L
same,IC80,[12],0.005 mg/L
same,IC80,[13],> 50 mg/L
same,IC80,[14],0.042 mg/L
same,IC80,[15],0.001 mg/L
same,IC80,[16],0.024 mg/L
same,IC80,[17],0.16 mg/L
same,IC80,[18],> 50 mg/L
same,IC80,[19],> 50 mg/L
same,IC80,[20],0.24 mg/L
same,"IC50, pseudovirus neutralization",[21],0.001 mg/L
same,"IC50, pseudovirus neutralization",[22],0.03 mg/L
same,"IC50, pseudovirus neutralization",[23],18.9 mg/L
same,"IC50, pseudovirus neutralization",[24],0.054 mg/L
same,"IC50, pseudovirus neutralization",[25],0.001 mg/L
same,"IC50, pseudovirus neutralization",[26],0.132 mg/L
same,"IC50, pseudovirus neutralization",[27],0.001 mg/L
same,"IC50, pseudovirus neutralization",[28],0.052 mg/L
same,"IC50, pseudovirus neutralization",[29],0.019 mg/L
same,"IC50, pseudovirus neutralization",[30],0.038 mg/L
same,"IC50, pseudovirus neutralization",[31],0.005 mg/L
same,"IC50, pseudovirus neutralization",[32],0.031 mg/L
same,"IC50, pseudovirus neutralization",[33],0.02 mg/L
same,"IC50, pseudovirus neutralization",[34],0.13 mg/L
same,"IC50, pseudovirus neutralization",[35],0.13 mg/L
same,"IC50, pseudovirus neutralization",[36],> 50 mg/L
same,"IC50, pseudovirus neutralization",[37],0.01 mg/L
same,"IC50, pseudovirus neutralization",[38],0.04 mg/L
same,"IC50, pseudovirus neutralization",[39],> 50 mg/L
same,"IC50, pseudovirus neutralization",[40],0.002 mg/L
same,"IC50, pseudovirus neutralization",[41],0.04 mg/L
